We go through two molecules from patent US20250223354A1 (BIOTHEUS, published 2025).

For assay [1], the target named is T1, cynomolgus TIGIT overexpressed on CHO cells (cynomolgus, UniProt A0A7N9I9V4 89-312).
T1 construct: whole, on cells; also called CHO-cynoTIGIT cells
The assay can be described thus: flow cytometry on CHO cells overexpressing cynomolgus TIGIT, median fluorescence intensity PE-A; unit from the concentration axis. An excerpt:
(§1) Specifically, CHO cells overexpressing human TIGIT (CHO-huTIGIT cells), CHO cells overexpressing cynomolgus TIGIT (CHO-cynoTIGIT cells) and CHO cells overexpressing mouse TIGIT (CHO-muTIGIT cells) were generated by transfection of the pCHO1.0 vector (purchased from Invitrogen) with cDNA encoding human TIGIT, cynomolgus TIGIT and mouse TIGIT cloned into the multiple cloning site (MCS), respectively, followed by pressure screening. The overexpressing cells were expanded and adjusted to an appropriate cell density, and added to a 96-well flow cytometry plate. After centrifugation, the cells were added with a gradiently diluted sample to be tested, and incubated at 4° C. for 30 minutes. The cells were washed twice with PBS, and added with a fluorescent secondary antibody correspondingly diluted to an appropriate concentration, then incubated at 4° C. for 30 minutes, and washed twice with PBS. Cells were resuspended with PBS, and detected on a CytoFlex flow cytometer, and the corresponding MFI was calculated. Graphpad software was used for graphical analysis to obtain EC₅₀ values.
Background: A flow cytometer gives signals particle by particle.

For assay [2], the target named is T2, human TIGIT expressed on cells (human, UniProt Q495A1 22-244).
T2 construct: whole, on cells; cDNA encoding human TIGIT in pCHO1.0 for CHO cells; also called CHO-huTIGIT cells
T2 sequence (looked up): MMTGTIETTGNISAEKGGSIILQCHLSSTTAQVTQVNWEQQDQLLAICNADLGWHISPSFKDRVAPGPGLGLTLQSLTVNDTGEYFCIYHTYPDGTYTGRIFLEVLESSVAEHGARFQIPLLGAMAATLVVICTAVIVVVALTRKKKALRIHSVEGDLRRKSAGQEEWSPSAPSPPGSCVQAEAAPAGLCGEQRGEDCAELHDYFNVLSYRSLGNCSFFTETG
In words: flow cytometry, CHO-huTIGIT cells.
Source text: as §1

Assay [3] addresses T2, human TIGIT expressed on cells. The assay can be described thus: flow cytometry, competition with human CD155-mouse IgG2a Fc (2 ug/mL) on CHO-huTIGIT cells. The method, then:
(§2) Specifically, the CHO-huTIGIT cells were expanded and adjusted to a cell density of 2×10⁶ cells/mL, added to a 96-well flow plate at 100 μL/well, and centrifuged for later use. The purified monoclonal antibodies were diluted 3-fold with PBS starting at 400 nM for a total of 12 concentration gradients. The diluted sample was added at 60 μL/well to the cells-carrying 96-well flow plate, and incubated at 4° C. for 30 minutes. […] APC-conjugated goat anti-mouse IgG antibody diluted 100-fold with PBS was added at 100 μL/well, incubated at 4° C. for 30 minutes, and washed twice with PBS. Cells were resuspended with PBS at 100 μL/well, and detected on a CytoFlex flow cytometer, and the corresponding MFI was calculated.

Assay [4] addresses T3, mouse TIGIT overexpressed on CHO cells (mouse, UniProt P86176 29-249).
T3 construct: whole, on cells; also called CHO-muTIGIT cells
T3 sequence (looked up): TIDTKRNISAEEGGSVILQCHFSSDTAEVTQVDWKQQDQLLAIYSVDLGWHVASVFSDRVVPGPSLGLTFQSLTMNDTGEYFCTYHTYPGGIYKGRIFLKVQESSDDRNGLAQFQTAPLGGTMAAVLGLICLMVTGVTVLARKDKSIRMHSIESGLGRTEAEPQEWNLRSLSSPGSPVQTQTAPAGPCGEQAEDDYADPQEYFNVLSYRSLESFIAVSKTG
In words: flow cytometry, CHO-muTIGIT cells.
Source text: as §1

Assay [5] addresses T1, cynomolgus TIGIT overexpressed on CHO …. In words: flow cytometry, CHO-cynoTIGIT cells.
Source text: as §1

The target of assay [6] is T3, mouse TIGIT overexpressed on CHO cells. In words: flow cytometry blocking assay: binding of mouse CD155 protein with mouse IgG2a Fc tag to CHO cells overexpressing mouse TIGIT, median fluorescence intensity APC-A; unit from the concentration axis. The method, then:
as §2, with “The CHO-muTIGIT” for “Specifically, the CHO-huTIGIT”, “purified” for “purified monoclonal”, “gradients.” for “gradients. The diluted sample was added at 60 μL/well to the cells-carrying 96-well flow plate, and incubated at 4° C. for 30 minutes.”, “calculated. Graphpad software was used for graphing analysis to obtain IC₅₀ values.” for “calculated.”

Assay [7] addresses T2, human TIGIT expressed on cells. The assay can be described thus: flow cytometry on CHO cells overexpressing human TIGIT, median fluorescence intensity PE-A; unit from the concentration axis.
Source text: as §1

Assay [8] has as its target T3, mouse TIGIT overexpressed on CHO cells. The assay can be described thus: flow cytometry, competition with mouse CD155-mouse IgG2a Fc (2 ug/mL) on CHO-muTIGIT cells. The method, then: as §2, with “The CHO-muTIGIT” for “Specifically, the CHO-huTIGIT”, “purified” for “purified monoclonal”, “gradients.” for “gradients. The diluted sample was added at 60 μL/well to the cells-carrying 96-well flow plate, and incubated at 4° C. for 30 minutes.”, “calculated. Graphpad software was used for graphing analysis to obtain IC₅₀ values.” for “calculated.”

The target of assay [9] is T2, human TIGIT expressed on cells. The assay can be described thus: flow cytometry blocking assay: binding of human CD155 protein with mouse IgG2a Fc tag to CHO cells overexpressing human TIGIT, median fluorescence intensity APC-A; unit from the concentration axis. On the procedure: as §2
Assay [10] has the same target. In words: flow cytometry on activated human primary T cells (TIGIT), readout positive cell (%); unit from the concentration axis. An excerpt: The binding activity of the anti-TIGIT antibody of the present invention to TIGIT on the surface of activated T cells was detected based on the flow cytometry detection method.
Specifically, human PBMC were sorted according to the experimental protocol provided by […] Company (stemcell, Cat. No.: #17951C) to obtain human total T cells. […] The activated T cells were adjusted to an appropriate cell density and added to a 96-well flow cytometry plate. After centrifugation, the gradiently diluted sample to be tested was added, and incubated at 4° C. for 30 minutes. Washing was carried out twice with PBS, and a fluorescent secondary antibody diluted to an appropriate concentration was added, incubated at 4° C. for 30 minutes, and washed twice with PBS. […]

Assay [11] concerns the target T3, mouse TIGIT overexpressed on CHO cells. The assay can be described thus: flow cytometry on CHO cells overexpressing mouse TIGIT, median fluorescence intensity PE-A; unit from the concentration axis.
Source text: as §1

T1 sequence (A0A7N9I9V4 entry or part of it): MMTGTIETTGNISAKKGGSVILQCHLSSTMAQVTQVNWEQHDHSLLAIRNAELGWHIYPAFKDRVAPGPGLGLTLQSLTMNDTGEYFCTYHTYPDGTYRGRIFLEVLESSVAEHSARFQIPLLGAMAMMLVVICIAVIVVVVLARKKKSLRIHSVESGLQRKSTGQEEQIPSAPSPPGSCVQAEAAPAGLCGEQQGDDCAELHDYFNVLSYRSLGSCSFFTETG

B1: anti-TIGIT monoclonal antibody 55796-G1 (antibody, V domains shown)
VH: QLQLQESGPGLVKPAETLSLTCTVSGGSISSYDHYWTWIRQPPGKGLEWIGTVYYSGSTFHNPSLKSRVTIPVDTSKNQFSLKLSSVTAADTAVYYCARVGPDVSHPPFDYWGQGTLVTVSS
VL: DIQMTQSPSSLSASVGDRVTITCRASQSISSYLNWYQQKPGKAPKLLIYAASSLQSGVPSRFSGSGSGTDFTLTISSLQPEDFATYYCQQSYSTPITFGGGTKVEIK
notes: Wild-type human IgG1 heavy chain constant region, human kappa light chain constant region
On to B1, for which the EC50 (as a rule, the midpoint of the concentration-response curve) came out at 1.32 nM in [1]; 0.96 nM in [2]; 2.96 nM in assay [4]; 1.32 nM in assay [5]; 0.962 nM in assay [7]; 0.106 nM in assay [10]. Moreover, a half-maximal effect in assay [11] (EC50) was put at 2.96 nM. For the same molecule, the IC50 (as a rule, the midpoint of a concentration-inhibition curve) turned out to be 0.24 nM in assay [3], 1.5 nM in assay [6], 1.5 nM in [8] and 0.236 nM in assay [9].

B2: anti-TIGIT monoclonal antibody 55796-G1LALA (antibody, V domains shown)
VH: QLQLQESGPGLVKPAETLSLTCTVSGGSISSYDHYWTWIRQPPGKGLEWIGTVYYSGSTFHNPSLKSRVTIPVDTSKNQFSLKLSSVTAADTAVYYCARVGPDVSHPPFDYWGQGTLVTVSS
VL: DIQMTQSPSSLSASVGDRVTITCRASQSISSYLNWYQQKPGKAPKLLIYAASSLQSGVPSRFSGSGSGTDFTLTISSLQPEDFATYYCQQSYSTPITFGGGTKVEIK
notes: Human IgG1 heavy chain constant region modified by L234A, L235A; human kappa light chain constant region; HEK293
With B2, the 50% effective concentration (EC50) in assay [1] worked out at 1.34 nM; in [2], 0.84 nM; in assay [4], 3.36 nM; in assay [5], 1.34 nM; in [7], 0.845 nM; in assay [10], 0.0878 nM. The same molecule yielded an EC50 in assay [11] of 3.36 nM. Moreover, the IC50 was 0.37 nM in assay [3], 1.56 nM in assay [6], 1.56 nM in assay [8] and 0.373 nM in assay [9].
